Data reported in US20120324602A1.

Legend:
[1] = biological target: 26S proteasome regulatory subunit (RPN9) (Arabidopsis thaliana); assay: TAP-MS, C-terminal GS tag
[2] = biological target: DNA-binding bromodomain-containing protein (AT1G20670) (Arabidopsis thaliana); assay: TAP-MS, C-terminal GS tag
[3] = biological target: G2484-1, agenet domain-containing protein (Arabidopsis thaliana); assay: TAP-MS, C-terminal GS tag
[4] = biological target: SNF2 protein (BRM) (Arabidopsis thaliana); assay: TAP-MS, C-terminal GS tag
[5] = biological target: SWIB complex BAF60b domain-containing protein (Swp73B) (Arabidopsis thaliana); assay: TAP-MS, C-terminal GS tag
[6] = biological target: T1, SWIRM domain-containing protein (SWI3C) (Arabidopsis thaliana); assay: TAP-MS, C-terminal GS tag
T1 sequence (Q9XI07 1-807, looked up): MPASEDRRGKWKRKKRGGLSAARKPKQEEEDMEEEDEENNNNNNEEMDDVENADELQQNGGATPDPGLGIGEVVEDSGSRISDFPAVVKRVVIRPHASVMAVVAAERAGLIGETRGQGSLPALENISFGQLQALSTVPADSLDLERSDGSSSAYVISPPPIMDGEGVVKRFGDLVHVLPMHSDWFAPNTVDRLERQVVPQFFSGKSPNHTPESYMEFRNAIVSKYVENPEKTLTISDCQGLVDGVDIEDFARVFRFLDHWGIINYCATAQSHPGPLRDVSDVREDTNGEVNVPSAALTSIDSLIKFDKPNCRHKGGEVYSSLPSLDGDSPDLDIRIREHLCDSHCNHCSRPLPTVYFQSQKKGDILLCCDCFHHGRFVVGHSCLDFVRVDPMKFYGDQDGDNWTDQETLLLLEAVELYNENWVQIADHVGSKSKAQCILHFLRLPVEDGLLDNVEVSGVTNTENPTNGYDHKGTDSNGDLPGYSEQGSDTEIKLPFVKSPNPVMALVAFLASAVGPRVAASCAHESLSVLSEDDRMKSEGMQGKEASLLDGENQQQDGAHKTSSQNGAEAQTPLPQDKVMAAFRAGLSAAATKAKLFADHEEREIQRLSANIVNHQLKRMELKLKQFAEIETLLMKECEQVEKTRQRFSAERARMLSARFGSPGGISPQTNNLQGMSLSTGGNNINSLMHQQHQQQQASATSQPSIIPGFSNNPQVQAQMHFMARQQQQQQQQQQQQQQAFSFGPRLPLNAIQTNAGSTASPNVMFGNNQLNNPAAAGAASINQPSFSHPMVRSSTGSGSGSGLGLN

[7] = biological target: T2, actin-related protein 4 (ARP4) (Arabidopsis thaliana); assay: TAP-MS, C-terminal GS tag
T2 sequence (Q84M92 1-441, looked up): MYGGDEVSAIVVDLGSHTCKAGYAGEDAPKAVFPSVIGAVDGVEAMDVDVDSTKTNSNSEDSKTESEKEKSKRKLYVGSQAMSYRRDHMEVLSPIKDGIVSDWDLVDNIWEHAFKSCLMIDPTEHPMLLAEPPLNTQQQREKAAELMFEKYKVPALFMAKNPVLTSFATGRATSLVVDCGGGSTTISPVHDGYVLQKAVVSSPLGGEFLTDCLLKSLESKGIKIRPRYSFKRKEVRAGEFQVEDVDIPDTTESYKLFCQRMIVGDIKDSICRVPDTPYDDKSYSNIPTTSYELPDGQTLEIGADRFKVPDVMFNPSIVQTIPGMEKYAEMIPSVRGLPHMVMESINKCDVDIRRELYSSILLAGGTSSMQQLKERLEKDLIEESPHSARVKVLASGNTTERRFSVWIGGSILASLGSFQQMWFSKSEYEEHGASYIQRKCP

[8] = biological target: T3, actin-related protein 7 (ARP7) (Arabidopsis thaliana); assay: TAP-MS, C-terminal GS tag
T3 sequence (Q8L4Y5 1-363, looked up): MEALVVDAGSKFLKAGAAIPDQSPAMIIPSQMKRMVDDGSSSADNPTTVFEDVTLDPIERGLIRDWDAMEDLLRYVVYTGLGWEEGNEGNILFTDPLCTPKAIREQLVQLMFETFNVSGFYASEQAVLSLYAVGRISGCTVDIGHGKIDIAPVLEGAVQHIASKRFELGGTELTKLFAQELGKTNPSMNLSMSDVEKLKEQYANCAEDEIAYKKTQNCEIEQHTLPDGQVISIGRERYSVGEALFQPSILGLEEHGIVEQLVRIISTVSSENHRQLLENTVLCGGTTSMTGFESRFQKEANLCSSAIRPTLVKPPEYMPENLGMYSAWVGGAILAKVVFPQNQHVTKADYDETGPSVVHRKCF

[9] = biological target: chromatin remodeling protein (SYD) (Arabidopsis thaliana); assay: TAP-MS, C-terminal GS tag
[10] = biological target: expressed protein (AT5G13030) (Arabidopsis thaliana); assay: TAP-MS, C-terminal GS tag
[11] = biological target: expressed protein, similar to At3g03460 (AT5G17510) (Arabidopsis thaliana); assay: TAP-MS, C-terminal GS tag
[12] = biological target: expressed protein, similar to At4g22320 (AT5G55210) (Arabidopsis thaliana); assay: TAP-MS, C-terminal GS tag
[13] = biological target: expressed protein, similar to DAG protein (AT3G15000) (Arabidopsis thaliana); assay: TAP-MS, C-terminal GS tag
[14] = biological target: homeobox-leucine zipper protein (HB-2)/HD-ZIP protein (Arabidopsis thaliana); assay: TAP-MS, C-terminal GS tag
[15] = biological target: importin alpha-1 subunit (IMPA1) (Arabidopsis thaliana); assay: TAP-MS, C-terminal GS tag
[16] = biological target: importin alpha-1 subunit (IMPA4) (Arabidopsis thaliana); assay: TAP-MS, C-terminal GS tag
[17] = biological target: importin alpha-2 (IMPA2) (Arabidopsis thaliana); assay: TAP-MS, C-terminal GS tag
[18] = biological target: importin beta-2 (Arabidopsis thaliana); assay: TAP-MS, C-terminal GS tag
[19] = biological target: T4, phytochrome A supressor spa1 (SPA1) (Arabidopsis thaliana); assay: TAP-MS, C-terminal GS tag
T4 sequence (Q9SYX2 1-1029, looked up): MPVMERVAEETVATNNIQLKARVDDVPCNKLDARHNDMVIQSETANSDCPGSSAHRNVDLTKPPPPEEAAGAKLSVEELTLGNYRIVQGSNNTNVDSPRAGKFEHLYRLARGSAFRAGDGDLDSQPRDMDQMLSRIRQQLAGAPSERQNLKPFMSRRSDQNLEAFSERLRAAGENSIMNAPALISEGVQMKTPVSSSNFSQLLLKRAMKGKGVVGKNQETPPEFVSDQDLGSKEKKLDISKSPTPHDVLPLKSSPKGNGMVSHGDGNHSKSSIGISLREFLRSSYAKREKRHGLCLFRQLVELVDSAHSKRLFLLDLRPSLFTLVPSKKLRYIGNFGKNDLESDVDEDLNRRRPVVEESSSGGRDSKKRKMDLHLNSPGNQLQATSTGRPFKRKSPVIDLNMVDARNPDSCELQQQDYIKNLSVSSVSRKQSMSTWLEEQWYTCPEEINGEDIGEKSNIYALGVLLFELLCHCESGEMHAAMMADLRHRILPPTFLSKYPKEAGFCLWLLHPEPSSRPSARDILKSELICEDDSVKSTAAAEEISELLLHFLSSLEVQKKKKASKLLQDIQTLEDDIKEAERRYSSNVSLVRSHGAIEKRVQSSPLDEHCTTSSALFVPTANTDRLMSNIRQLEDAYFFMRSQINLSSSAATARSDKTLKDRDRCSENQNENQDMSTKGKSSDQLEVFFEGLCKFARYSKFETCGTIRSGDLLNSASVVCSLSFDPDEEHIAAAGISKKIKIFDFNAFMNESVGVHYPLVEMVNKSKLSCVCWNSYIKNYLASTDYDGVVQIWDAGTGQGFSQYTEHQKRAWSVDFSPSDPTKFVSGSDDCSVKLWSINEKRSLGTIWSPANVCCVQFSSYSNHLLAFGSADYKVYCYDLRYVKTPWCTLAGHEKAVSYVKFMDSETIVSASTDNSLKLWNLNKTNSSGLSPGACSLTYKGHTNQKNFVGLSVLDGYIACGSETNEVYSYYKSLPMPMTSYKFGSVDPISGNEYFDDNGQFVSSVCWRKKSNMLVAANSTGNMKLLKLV

[20] = biological target: splicing factor (AT3G55220) (Arabidopsis thaliana); assay: TAP-MS, C-terminal GS tag
[21] = biological target: PHD finger protein (AT1G54390) (Arabidopsis thaliana); assay: TAP-MS, N-terminal GS tag
[22] = biological target: T5, SE (SERRATE) (Arabidopsis thaliana); assay: TAP-MS, N-terminal GS tag
T5 sequence (Q9ZVD0 1-720, looked up): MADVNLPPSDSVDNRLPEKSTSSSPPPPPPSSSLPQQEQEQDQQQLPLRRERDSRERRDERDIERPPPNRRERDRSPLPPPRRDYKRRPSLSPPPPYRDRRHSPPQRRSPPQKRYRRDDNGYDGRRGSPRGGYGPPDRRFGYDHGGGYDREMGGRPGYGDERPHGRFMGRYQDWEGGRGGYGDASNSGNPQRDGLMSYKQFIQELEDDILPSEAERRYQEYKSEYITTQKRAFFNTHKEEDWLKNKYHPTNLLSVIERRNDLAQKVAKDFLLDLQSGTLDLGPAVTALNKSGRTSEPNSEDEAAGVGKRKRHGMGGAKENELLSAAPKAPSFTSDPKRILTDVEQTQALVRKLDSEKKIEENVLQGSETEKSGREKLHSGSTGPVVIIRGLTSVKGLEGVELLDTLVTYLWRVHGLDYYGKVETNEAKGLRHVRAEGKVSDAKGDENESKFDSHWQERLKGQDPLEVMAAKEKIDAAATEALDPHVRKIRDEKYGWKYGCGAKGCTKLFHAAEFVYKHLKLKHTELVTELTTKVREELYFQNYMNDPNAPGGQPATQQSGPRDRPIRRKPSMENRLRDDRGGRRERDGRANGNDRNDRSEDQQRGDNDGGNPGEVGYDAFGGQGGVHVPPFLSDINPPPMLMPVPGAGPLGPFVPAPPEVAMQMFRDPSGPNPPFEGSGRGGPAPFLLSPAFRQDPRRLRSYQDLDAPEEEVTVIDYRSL

[23] = biological target: T6, TAF14B, GAS41 (Arabidopsis thaliana); assay: TAP-MS, N-terminal GS tag
T6 sequence (Q9FH40 1-268, looked up): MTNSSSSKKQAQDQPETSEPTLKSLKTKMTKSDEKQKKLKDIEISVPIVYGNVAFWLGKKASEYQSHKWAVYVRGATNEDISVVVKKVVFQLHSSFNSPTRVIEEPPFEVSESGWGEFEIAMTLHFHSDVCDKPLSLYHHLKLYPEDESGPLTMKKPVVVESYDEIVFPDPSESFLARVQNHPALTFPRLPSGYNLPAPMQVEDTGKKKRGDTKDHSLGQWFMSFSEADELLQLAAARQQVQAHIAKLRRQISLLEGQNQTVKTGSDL

[24] = biological target: T3, actin-related protein 7 (ARP7) (Arabidopsis thaliana); assay: TAP-MS, N-terminal GS tag
[25] = biological target: chaperonin (AT5G26360) (Arabidopsis thaliana); assay: TAP-MS, N-terminal GS tag
[26] = biological target: protein coding (AT5G14240) (Arabidopsis thaliana); assay: TAP-MS, N-terminal GS tag

B1: AN3-GS (protein, UniProt Q8L8A5 1-210, looked up)
GRF1-interacting factor 1: MQQHLMQMQPMMAGYYPSNVTSDHIQQYLDENKSLILKIVESQNSGKLSECAENQARLQRNLMYLAAIADSQPQPPSVHSQYGSAGGGMIQGEGGSHYLQQQQATQQQQMTQQSLMAARSSMLYAQQQQQQQPYATLQHQQLHHSQLGMSSSSGGGGSSGLHILQGEAGGFHDFGRGKPEMGSGGGGEGRGGSSGDGGETLYLKSSDDGN
modifications: C-terminal GS tag
[1]
  C-GS (times co-purified): 1
[2]
  C-GS (times co-purified): 1
[3]
  C-GS (times co-purified): 4
[4]
  C-GS (times co-purified): 4
[5]
  C-GS (times co-purified): 4
[6]
  C-GS (times co-purified): 4
[7]
  C-GS (times co-purified): 4
[8]
  C-GS (times co-purified): 4
[9]
  C-GS (times co-purified): 4
[10]
  C-GS (times co-purified): 1
[11]
  C-GS (times co-purified): 3
[12]
  C-GS (times co-purified): 4
[13]
  C-GS (times co-purified): 3
[14]
  C-GS (times co-purified): 1
[15]
  C-GS (times co-purified): 4
[16]
  C-GS (times co-purified): 1
[17]
  C-GS (times co-purified): 4
[18]
  C-GS (times co-purified): 4
[19]
  C-GS (times co-purified): 1
[20]
  C-GS (times co-purified): 1

B2: GS-ARP4 (protein, UniProt Q84M92 1-441, looked up)
Actin-related protein 4: MYGGDEVSAIVVDLGSHTCKAGYAGEDAPKAVFPSVIGAVDGVEAMDVDVDSTKTNSNSEDSKTESEKEKSKRKLYVGSQAMSYRRDHMEVLSPIKDGIVSDWDLVDNIWEHAFKSCLMIDPTEHPMLLAEPPLNTQQQREKAAELMFEKYKVPALFMAKNPVLTSFATGRATSLVVDCGGGSTTISPVHDGYVLQKAVVSSPLGGEFLTDCLLKSLESKGIKIRPRYSFKRKEVRAGEFQVEDVDIPDTTESYKLFCQRMIVGDIKDSICRVPDTPYDDKSYSNIPTTSYELPDGQTLEIGADRFKVPDVMFNPSIVQTIPGMEKYAEMIPSVRGLPHMVMESINKCDVDIRRELYSSILLAGGTSSMQQLKERLEKDLIEESPHSARVKVLASGNTTERRFSVWIGGSILASLGSFQQMWFSKSEYEEHGASYIQRKCP
modifications: N-terminal GS tag
[21]
  N-GS (times co-purified): 1
[22]
  N-GS (times co-purified): 1
[23]
  N-GS (times co-purified): 2
[24]
  N-GS (times co-purified): 2
[25]
  N-GS (times co-purified): 2
[26]
  N-GS (times co-purified): 2
